Laboratory results taken from the supplement of paper PMC10126150.
± gives the standard deviation of the averaged measurements.

Tested on: ATP
Assay: switch fluorescence ratio, 500 uM ATP over buffer (Cy3 cluster intensity, sum of 5 cycles each) (fold (ratio)); higher = stronger signal-on switching upon ATP binding; sequences stand for … in TCGTCGGCAGCGTCAGATGTGTATAAGAGACAGTTTTTTTTTTTTTTTTTTTTTTTTT…TC
Details: aptamer strand: ATP DNA aptamer (quencher-CACCTGGGGGAGTATTGCGGAGGAAGG + anchor), 100 nM annealed; ATP concentration: 500 uM
Method in brief: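 Values give the fluorescence ratio for each switch-domain sequence, averaged from per-cluster ratios of summed target-cycle to summed buffer-cycle Cy3 intensity. The Cy3-labelled switching-strand clusters sat on a modified Illumina MiSeq flow-cell, were annealed to 100 nM quencher-labelled ATP aptamer, and were imaged in selection buffer, then after 15 min with 500 uM ATP at 22 °C. Five cycles ran with NaOH stripping and re-annealing between them, and clusters outside 100-1000 RFU were excluded.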
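Further: ATP exposure 15 min at 22 °C before imaging.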

Sequence | switch fluorescence ratio
TTGATATGGA | 0.98 ± 0.022
TTGATATGGG | 1.03 ± 0.11
TTGATCTCAT | 0.9479 ± 0.0076
TTGATGCGGA | 0.971 ± 0.05
TTGATGCTCT | 1.21 ± 0.28
TTGATGGATG | 1.04 ± 0.09
TTGATGGGAT | 0.988 ± 0.052
TTGATGGGTA | 1.01 ± 0.032
TTGATGGTAA | 0.977 ± 0.022
TTGATGGTAC | 1.0774 ± 0.00051
TTGATGTGCT | 1.01 ± 0.013
TTGATGTTGG | 0.992 ± 0.048
TTGATTACTC | 1.04 ± 0.051
TTGATTCAGC | 1.01 ± 0.012
TTGATTCATA | 0.98126 ± 0.00011
TTGATTCATT | 1.01 ± 0.025
TTGATTGATA | 1 ± 0.028
TTGATTGCTT | 0.9717 ± 0.0011
TTGATTGGCC | 0.958 ± 0.018
TTGATTGGTA | 1 ± 0.041
TTGATTTCGT | 0.9998 ± 0.0024
TTGCAAAACT | 1.32 ± 0.51
TTGCAAATCG | 1.11 ± 0.18
TTGCAATTAT | 1.26 ± 0.18
TTGCACCATT | 1.05 ± 0.12

Sequence | switch fluorescence ratio
TTGCACGGTT | 1.04 ± 0.06
TTGCACGTAT | 1.08 ± 0.056
TTGCACGTTT | 1.27 ± 0.19
TTGCATATAG | 1.3 ± 0.065
TTGCATCTTG | 1.01 ± 0.033
TTGCATGATG | 0.9611 ± 0.0076
TTGCATGGGC | 1.05 ± 0.063
TTGCATTTAA | 1.0047 ± 0.00053
TTGCCAAGGT | 1 ± 0.013
TTGCCACGGA | 1.07 ± 0.051
TTGCCGGCTA | 1.038 ± 0.0057
TTGCCTCGTT | 1.05 ± 0.023
TTGCCTGAAA | 1 ± 0.019
TTGCCTGTGT | 1.039 ± 0.0012
TTGCCTGTTT | 0.967 ± 0.049
TTGCGAAATC | 1.44 ± 0.58
TTGCGACGCT | 1.17 ± 0.13
TTGCGAGTTG | 1 ± 0.021
TTGCGCGGAC | 2.34 ± 1.5
TTGCGCGGGA | 1.02 ± 0.072
TTGCGGAGGA | 1.01 ± 0.043
TTGCGGCTGG | 0.974 ± 0.031
TTGCGGGGGG | 1.03 ± 0.032
TTGCGGGTGG | 1.01 ± 0.028
TTGCGTATTT | 0.993 ± 0.033

Sequence | switch fluorescence ratio
TTGCGTGTGG | 1.048 ± 0.0046
TTGCGTTGTG | 0.992 ± 0.041
TTGCTAATCA | 1 ± 0.04
TTGCTAGGGC | 1.01 ± 0.033
TTGCTCATAA | 1 ± 0.032
TTGCTCGTGG | 1.028 ± 0.0047
TTGCTGGATT | 1 ± 0.033
TTGCTGGCCG | 1.03 ± 0.026
TTGCTGGCGG | 1 ± 0.038
TTGCTGGGCG | 0.995 ± 0.026
TTGCTGGGGT | 1.01 ± 0.044
TTGCTGTACG | 1.04 ± 0.021
TTGCTGTGAG | 0.9762 ± 0.0012
TTGCTTCAAT | 0.983 ± 0.045
TTGCTTGCGT | 1.01 ± 0.03
TTGCTTGTGT | 0.9983 ± 0.0049
TTGCTTTAAT | 0.988 ± 0.019
TTGGAAAAAG | 1.1 ± 0.18
TTGGAACGGG | 1.02 ± 0.011
TTGGAAGCAT | 1.01 ± 0.036
TTGGAAGTAG | 0.9688 ± 0.0029
TTGGAAGTTC | 1 ± 0.019
TTGGAATTCA | 1.02 ± 0.071
TTGGAATTCT | 1.04 ± 0.081
TTGGAATTGT | 1.005 ± 0.0075

Sequence | switch fluorescence ratio
TTGGACATTT | 0.999 ± 0.013
TTGGACCCAT | 1.02 ± 0.02
TTGGACGCAC | 2.08 ± 0.12
TTGGACGGGT | 1.022 ± 0.008
TTGGACTAAA | 1.06 ± 0.011
TTGGACTACT | 0.984 ± 0.035
TTGGACTGGG | 0.948 ± 0.082
TTGGAGGCGG | 0.984 ± 0.066
TTGGAGGCTC | 1.03 ± 0.024
TTGGAGGTGG | 0.959 ± 0.031
TTGGATAAAC | 1.03 ± 0.053
TTGGATGTGT | 0.9407 ± 0.001
TTGGCATGGG | 0.99 ± 0.015
TTGGCCACGC | 1.018 ± 0.0056
TTGGCCGGGG | 1.01 ± 0.029
TTGGCCTATA | 0.973 ± 0.021
TTGGCGGGGT | 1.04 ± 0.081
TTGGCGTCGT | 0.995 ± 0.043
TTGGCTATTT | 0.9981 ± 0.0075
TTGGCTTACT | 1.11 ± 0.11
TTGGCTTAGA | 1.001 ± 0.01
TTGGGAAAGT | 0.995 ± 0.017
TTGGGAAGAT | 0.981 ± 0.018
TTGGGAAGGT | 0.982 ± 0.049
TTGGGACTGT | 0.978 ± 0.054

Sequence | switch fluorescence ratio
TTGGGAGCGG | 0.9769 ± 0.0038
TTGGGAGGTT | 0.968 ± 0.025
TTGGGATAAC | 1.04 ± 0.058
TTGGGATGCC | 1.08 ± 0.17
TTGGGCAAGG | 1.02 ± 0.026
TTGGGCCCGT | 1.02 ± 0.075
TTGGGCGAGC | 0.9736 ± 0.0045
TTGGGGAAGC | 0.958 ± 0.002
TTGGGGAAGG | 1.04 ± 0.034
TTGGGGAATT | 1 ± 0.019
TTGGGGAGAG | 0.991 ± 0.01
TTGGGGATAT | 0.998 ± 0.039
TTGGGGATGG | 1.01 ± 0.047
TTGGGGATTA | 1.09 ± 0.18
TTGGGGCAAA | 1.06 ± 0.061
TTGGGGCATA | 1.43 ± 0.77
TTGGGGCGTT | 0.993 ± 0.057
TTGGGGGACG | 0.982 ± 0.048
TTGGGGGACT | 1.01 ± 0.042
TTGGGGGCAT | 1.02 ± 0.052
TTGGGGGCCT | 1.04 ± 0.06
TTGGGGGCGA | 1.036 ± 0.0035
TTGGGGGGAA | 1.01 ± 0.025
TTGGGGGGGT | 1 ± 0.03
TTGGGGGGTT | 1.03 ± 0.066

Sequence | switch fluorescence ratio
TTGGGGGTCC | 1.02 ± 0.038
TTGGGGTCCC | 1 ± 0.037
TTGGGGTCCG | 0.977 ± 0.053
TTGGGGTTAC | 1.11 ± 0.16
TTGGGGTTCT | 1.04 ± 0.033
TTGGGTAAGT | 1.016 ± 0.0059
TTGGGTAGCA | 0.9968 ± 0.0098
TTGGGTAGCT | 0.996 ± 0.043
TTGGGTAGTG | 0.993 ± 0.031
TTGGGTATAG | 1.02 ± 0.028
TTGGGTATGG | 0.997 ± 0.018
TTGGGTATGT | 1.01 ± 0.038
TTGGGTCAAC | 1.05 ± 0.014
TTGGGTCATA | 1.01 ± 0.039
TTGGGTCCTT | 0.993 ± 0.026
TTGGGTCGGA | 0.992 ± 0.029
TTGGGTGGCG | 1.04 ± 0.12
TTGGGTGTTG | 0.997 ± 0.037
TTGGGTTAGC | 1.03 ± 0.037
TTGGGTTCCT | 1.04 ± 0.11
TTGGGTTTAT | 0.999 ± 0.017
TTGGGTTTGG | 0.986 ± 0.015
TTGGTAATCC | 1.011 ± 0.0026
TTGGTACCGC | 1 ± 0.048
TTGGTACGGC | 0.99 ± 0.037

Sequence | switch fluorescence ratio
TTGGTACGGG | 1.01 ± 0.047
TTGGTACTGC | 1.03 ± 0.027
TTGGTAGAGT | 0.965 ± 0.04
TTGGTATATA | 0.9879 ± 0.0069
TTGGTATGTA | 1 ± 0.018
TTGGTATTTG | 0.993 ± 0.018
TTGGTCTATC | 0.998 ± 0.035
TTGGTGAATT | 0.99 ± 0.019
TTGGTGAGGT | 0.99 ± 0.041
TTGGTGCATG | 1.01 ± 0.04
TTGGTGCGTT | 0.992 ± 0.018
TTGGTGCTGT | 1.01 ± 0.017
TTGGTTACTT | 1.01 ± 0.011
TTGGTTATGG | 1 ± 0.039
TTGGTTATTT | 1 ± 0.045
TTGGTTCAGC | 1.05 ± 0.028
TTGGTTCCGC | 1.53 ± 0.48
TTGGTTCTCT | 1.01 ± 0.011
TTGGTTCTGA | 1.021 ± 0.0036
TTGGTTGGAA | 1 ± 0.072
TTGGTTGTAG | 1.01 ± 0.02
TTGGTTTACG | 1.02 ± 0.03
TTGGTTTCGT | 1.022 ± 0.0059
TTGGTTTGCC | 0.982 ± 0.029
TTGGTTTTGT | 0.995 ± 0.024

Sequence | switch fluorescence ratio
TTGGTTTTTA | 0.98 ± 0.018
TTGTAAAATT | 0.99 ± 0.027
TTGTAAACTT | 1.03 ± 0.012
TTGTAACGGA | 1.01 ± 0.039
TTGTACTTAC | 1.24 ± 0.048
TTGTAGATGC | 1.03 ± 0.071
TTGTAGCCGT | 0.983 ± 0.029
TTGTAGGAAC | 0.9978 ± 0.0037
TTGTAGGGAG | 1 ± 0.027
TTGTAGTATC | 1 ± 0.025
TTGTAGTTGG | 0.986 ± 0.058
TTGTAGTTTT | 1.01 ± 0.038
TTGTATAAGG | 1 ± 0.015
TTGTATCCTG | 0.9637 ± 0.0011
TTGTATGGG | 0.984 ± 0.015
TTGTATTAGG | 0.968 ± 0.05
TTGTCAGTTT | 1.03 ± 0.079
TTGTCCGGGG | 1.006 ± 0.0058
TTGTCCGTGC | 1.14 ± 0.15
TTGTCCTGCG | 0.965 ± 0.019
TTGTCCTGTG | 1.02 ± 0.036
TTGTCGTCGC | 0.989 ± 0.024
TTGTCTCTTT | 0.9932 ± 0.0062
TTGTGAAAGA | 1.01 ± 0.021
TTGTGAATGT | 0.975 ± 0.016
